{"source": "patent EP4289863A9", "key": {"[1]": {"target": "T1, human IL-36R (antigen of the OD450 binding screen of Table 1) (human) (UniProt Q9HB29)", "T1 sequence (looked up)": "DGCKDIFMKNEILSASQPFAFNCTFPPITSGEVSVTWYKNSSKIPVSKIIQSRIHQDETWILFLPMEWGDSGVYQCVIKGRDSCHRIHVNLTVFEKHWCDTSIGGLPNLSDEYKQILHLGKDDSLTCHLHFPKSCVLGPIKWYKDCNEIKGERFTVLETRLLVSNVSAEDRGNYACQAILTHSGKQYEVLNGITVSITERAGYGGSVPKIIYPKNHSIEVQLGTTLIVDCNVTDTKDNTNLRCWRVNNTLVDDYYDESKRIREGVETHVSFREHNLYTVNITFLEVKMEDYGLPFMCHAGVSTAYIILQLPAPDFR", "assay": "OD450 binding screen of hybridoma supernatant, antigen not named"}, "human IL-36R (human) [2]": {"target": "T2, human IL-36R (human) (UniProt Q9HB29)", "T2 sequence (looked up)": "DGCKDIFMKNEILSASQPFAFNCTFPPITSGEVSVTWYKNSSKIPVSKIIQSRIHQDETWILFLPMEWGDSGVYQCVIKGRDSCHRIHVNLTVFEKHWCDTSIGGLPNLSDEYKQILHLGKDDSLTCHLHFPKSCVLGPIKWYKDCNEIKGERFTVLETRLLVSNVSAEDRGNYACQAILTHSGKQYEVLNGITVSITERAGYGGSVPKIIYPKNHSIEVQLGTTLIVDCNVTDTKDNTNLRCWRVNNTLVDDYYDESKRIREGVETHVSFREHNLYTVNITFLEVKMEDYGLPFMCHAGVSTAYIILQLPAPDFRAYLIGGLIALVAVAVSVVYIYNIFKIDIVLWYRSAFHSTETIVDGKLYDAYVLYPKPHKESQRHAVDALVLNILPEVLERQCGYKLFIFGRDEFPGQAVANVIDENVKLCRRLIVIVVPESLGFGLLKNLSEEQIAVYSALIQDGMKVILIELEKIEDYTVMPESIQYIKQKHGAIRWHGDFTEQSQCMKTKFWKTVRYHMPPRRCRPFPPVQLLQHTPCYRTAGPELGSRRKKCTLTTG", "assay": "cell-based or functional assay"}, "monkey IL-36R (monkey)": {"target": "monkey IL-36R (monkey)", "assay": "flow cytometry on cells, hybridoma supernatant"}, "human IL-36R (human) [3]": {"target": "T2, human IL-36R (human)", "assay": "flow cytometry on cells, hybridoma supernatant"}, "human IL1R1 (human)": {"target": "human IL1R1 (human) (UniProt P14778)", "sequence (P14778 18-569)": "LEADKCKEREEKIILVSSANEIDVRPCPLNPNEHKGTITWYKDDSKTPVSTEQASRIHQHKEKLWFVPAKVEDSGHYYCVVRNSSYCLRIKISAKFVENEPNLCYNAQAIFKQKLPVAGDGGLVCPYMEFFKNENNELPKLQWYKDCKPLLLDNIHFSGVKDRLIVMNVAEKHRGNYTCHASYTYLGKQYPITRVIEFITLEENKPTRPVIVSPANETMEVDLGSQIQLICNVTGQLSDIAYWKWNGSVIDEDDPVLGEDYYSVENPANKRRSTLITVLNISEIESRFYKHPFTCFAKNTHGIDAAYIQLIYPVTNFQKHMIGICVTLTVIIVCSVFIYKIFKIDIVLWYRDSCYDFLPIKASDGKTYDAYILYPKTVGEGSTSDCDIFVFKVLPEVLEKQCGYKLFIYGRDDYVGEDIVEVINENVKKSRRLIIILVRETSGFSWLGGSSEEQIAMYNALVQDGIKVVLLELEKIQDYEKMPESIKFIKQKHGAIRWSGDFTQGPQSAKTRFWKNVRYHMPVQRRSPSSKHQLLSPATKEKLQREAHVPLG", "assay": "flow cytometry on cells, hybridoma supernatant"}}}
{"binder": "111(1)-E5 (antibody, part only; not given: light chain, V domains shown, part only) VH: QVQLQQTGSVLVRPGTSVKLSCKASGYTFTSSWMHWAKQRPGQGLEWIGEIHPNSAKTNYNEKFKGKATLTVDTFSSTAYVDLSSLASEDSAVYYCARVDYGKPWFAYWGQGTLVTVSA", "values": [{"measurement": "Binding activity OD450 value", "setting": "[1]", "value": 2.16, "unit": "OD450"}, {"measurement": "IL-6 ratio in blockage of human IL36β functional activity (hybridoma supernatant/positive control)", "setting": "human IL-36R (human) [2]", "value": 0.07, "unit": "%"}, {"measurement": "IL-8 ratio in blockage of human IL36α functional activity (hybridoma supernatant/positive control)", "setting": "human IL-36R (human) [2]", "value": -4.02, "unit": "%"}, {"measurement": "IL-8 ratio in blockage of human IL36β functional activity (hybridoma supernatant/positive control)", "setting": "human IL-36R (human) [2]", "value": -4.62, "unit": "%"}, {"measurement": "IL-8 ratio in blockage of human IL36γ functional activity (hybridoma supernatant/positive control)", "setting": "human IL-36R (human) [2]", "value": -3.86, "unit": "%"}, {"measurement": "MFI ratio (hybridoma supernatant/positive control)", "setting": "monkey IL-36R (monkey)", "value": 105, "unit": "%"}, {"measurement": "MFI ratio (hybridoma supernatant/positive control)", "setting": "human IL-36R (human) [3]", "value": 81.6, "unit": "%"}, {"measurement": "MFI ratio (hybridoma supernatant/negative control)", "setting": "human IL1R1 (human)", "value": 118, "unit": "%"}]}
